Experimental data published in paper PMC7544233 (2020).

T1: RHAU53 peptide (UniProt Q9H2U1 53-105)
T1 sequence: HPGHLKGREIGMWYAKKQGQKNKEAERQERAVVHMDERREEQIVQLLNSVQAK


Assays:
[1] = tested on: FAM-D-hTERC rG4 (RNA, G4) GGGUUGCGGAGGGUGGGCCU; assay: microscale thermophoresis; conditions: 150 mM KCl, 1 mM MgCl2; 25 mM Tris-HCl pH 7.5, 25 °C, 40 nM RNA
[2] = target: T1, RHAU53 peptide; assay: EMSA
[3] = target: nucleolin (UniProt P19338 1-710); assay: EMSA
Chain of nucleolin (P19338 whole entry): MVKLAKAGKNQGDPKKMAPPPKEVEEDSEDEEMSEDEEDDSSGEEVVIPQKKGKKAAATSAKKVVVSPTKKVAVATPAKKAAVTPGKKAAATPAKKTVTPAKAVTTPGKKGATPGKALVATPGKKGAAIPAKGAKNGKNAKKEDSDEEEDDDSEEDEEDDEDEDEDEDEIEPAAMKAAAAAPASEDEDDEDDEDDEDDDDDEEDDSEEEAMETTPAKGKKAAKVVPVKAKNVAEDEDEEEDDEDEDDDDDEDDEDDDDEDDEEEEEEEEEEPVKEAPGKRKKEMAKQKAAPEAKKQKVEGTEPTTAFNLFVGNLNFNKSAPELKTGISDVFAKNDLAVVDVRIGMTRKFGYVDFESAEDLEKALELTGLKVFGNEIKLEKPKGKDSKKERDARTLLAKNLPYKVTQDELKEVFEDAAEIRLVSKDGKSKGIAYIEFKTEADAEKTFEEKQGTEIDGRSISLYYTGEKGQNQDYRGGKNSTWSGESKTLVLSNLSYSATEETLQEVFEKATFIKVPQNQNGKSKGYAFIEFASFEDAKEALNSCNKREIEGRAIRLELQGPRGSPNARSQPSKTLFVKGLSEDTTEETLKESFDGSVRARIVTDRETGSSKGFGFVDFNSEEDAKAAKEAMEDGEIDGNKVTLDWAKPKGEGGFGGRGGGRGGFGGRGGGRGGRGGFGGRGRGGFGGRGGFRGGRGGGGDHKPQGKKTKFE

Kd [1] [nM] | Molecule | Kd [2] [nM] | binding result [3]
19.5 ± 11.5 | NCCOc1cc(NC(=O)c2cc(OCc3cn(CCC(=O)O)nn3)cc(C(=O)Nc3cc(OCCN)c4ccccc4n3)n2)nc2ccccc12 | – | –
– | GGGUUGCGGAGGGUGGGCCU (structured_RNA) [D-hTERC rG4] | 24.5 ± 3.9 | binds
